Laboratory results published in patent US20240352098A1 (AstraZeneca / MedImmune, published 2024).
Substitutions are numbered along the chain they refer to. Numbers in names are those of the source.

T1: ClfA (Staphylococcus aureus)
T1 chain: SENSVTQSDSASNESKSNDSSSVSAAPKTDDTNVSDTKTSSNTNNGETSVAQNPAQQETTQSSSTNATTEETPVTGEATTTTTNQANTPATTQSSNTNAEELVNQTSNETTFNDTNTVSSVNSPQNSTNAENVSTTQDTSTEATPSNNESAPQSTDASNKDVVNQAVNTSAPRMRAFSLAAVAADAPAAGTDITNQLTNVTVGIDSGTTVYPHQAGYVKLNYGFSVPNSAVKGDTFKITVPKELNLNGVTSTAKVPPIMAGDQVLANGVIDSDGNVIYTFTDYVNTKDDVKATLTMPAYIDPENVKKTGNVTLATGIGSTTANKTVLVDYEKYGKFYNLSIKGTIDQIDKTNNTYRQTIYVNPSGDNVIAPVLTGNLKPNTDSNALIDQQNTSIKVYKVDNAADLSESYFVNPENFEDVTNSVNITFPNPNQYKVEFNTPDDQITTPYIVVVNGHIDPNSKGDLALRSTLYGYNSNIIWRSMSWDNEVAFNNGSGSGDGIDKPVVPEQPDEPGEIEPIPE

T2: S. aureus clumping factor A, founder genotype ClfA002 (Staphylococcus aureus, UniProt Q99VJ4 221-559)
T2 sequence: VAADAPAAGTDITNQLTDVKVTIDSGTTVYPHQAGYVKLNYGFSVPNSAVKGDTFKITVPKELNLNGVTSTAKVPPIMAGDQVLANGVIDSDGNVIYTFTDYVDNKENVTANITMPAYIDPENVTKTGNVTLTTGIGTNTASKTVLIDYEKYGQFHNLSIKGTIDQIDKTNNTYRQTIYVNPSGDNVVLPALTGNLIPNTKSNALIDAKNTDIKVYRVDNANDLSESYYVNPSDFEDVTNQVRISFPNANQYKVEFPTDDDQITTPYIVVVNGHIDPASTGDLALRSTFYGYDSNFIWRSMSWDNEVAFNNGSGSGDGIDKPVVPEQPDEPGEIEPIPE

B1: N3F (antibody)
heavy: QVQLQESGPGLVKPSETLSLTCTVSGGSIQNSYWSWIRQPPGKGLEWIGYLYSSGRTNYTPSLKSRVTISVDTSKNQFSLKLSSVTAADTAVYYCARTHLGGFHYGGGFWFDPWGQGTLVTVSSASTKGPSVFPLAPSSKSTSGGTAALGCLVKDYFPEPVTVSWNSGALTSGVHTFPAVLQSSGLYSLSSVVTVPSSSLGTQTYICNVNHKPSNTKVDKRVEPKSCDKTHTCPPCPAPELLGGPSVFLFPPKPKDTLMISRTPEVTCVVVDVSHEDPEVKFNWYVDGVEVHNAKTKPREEQYNSTYRVVSVLTVLHQDWLNGKEYKCKVSNKALPAPIEKTISKAKGQPREPQVYTLPPSREEMTKNQVSLTCLVKGFYPSDIAVEWESNGQPENNYKTTPPVLDSDGSFFLYSKLTVDKSRWQQGNVFSCSVMHEACSFHLCQKSLSLSPGK
light: DIQMTQSPSSLSASVGDRVTITCRASQSITSYLNWYQQKPGKAPKLLIYASSSLQSGVPSRFSGSGSGTDFTLTISSLQPEDFATYYCQESYSTPPTFGQGTKVEIKRTVAAPSVFIFPPSDEQLKSGTASVVCLLNNFYPREAKVQWKVDNALQSGNSQESVTEQDSKDSTYSLSSTLTLSKADYEKHKVYACEVTHQGLSSPVTKSFNRGEC
notes: copies: 2 + 2
B2: SAR114 anti-ClfA monoclonal antibody (antibody)
heavy: not shown
light: B1 light
B3: N3Y (antibody)
heavy chain: B1 heavy with F441Y
light chain: B1 light
B4: SAR114-N3 (antibody)
heavy: B1 heavy with F441W
light: B1 light

Tests used:
ClfA [1] = target: T1, ClfA; assay: fibrinogen binding inhibition ('Fg IH' / 'fibrinogen assay'); blocked ligand fibrinogen; sample after 2 weeks of light exposure; ClfA genotype not stated; printed in both tables
ClfA [2] = target: T1, ClfA; assay: fibrinogen binding inhibition ('Fg IH' / 'fibrinogen assay'); blocked ligand fibrinogen; sample after 1 week of light exposure; ClfA genotype not stated; printed in both tables
ClfA [3] = target: T1, ClfA; assay: fibrinogen binding inhibition ('Fg IH' / 'fibrinogen assay'); blocked ligand fibrinogen; sample before light exposure; ClfA genotype not stated; printed in both tables
[4] = target: T2, S. aureus clumping factor A, founder …; assay: inhibition of ClfA binding to fibrinogen
[5] = target: T3, S. aureus clumping factor A, founder genotype ClfA004 (Staphylococcus aureus); assay: inhibition of ClfA binding to fibrinogen
T3 construct: range 221-559

[6] = target: T3, S. aureus clumping factor A, founder …
[7] = target: T2, S. aureus clumping factor A, founder …
[8] = target: T2, S. aureus clumping factor A, founder …; assay: affinity kinetics, method not named (Table 1)
[9] = target: T3, S. aureus clumping factor A, founder …; assay: affinity kinetics, method not named (Table 1)
[10] = target: T2, S. aureus clumping factor A, founder …; assay: fibrinogen binding inhibition assay (FIG. 1B)
[11] = target: T3, S. aureus clumping factor A, founder …; assay: fibrinogen binding inhibition assay (FIG. 1B)
[12] = target: T2, S. aureus clumping factor A, founder …; assay: ELISA, inhibition of ClfA binding to immobilised fibrinogen
[13] = target: T3, S. aureus clumping factor A, founder …; assay: as above
[14] = target: T2, S. aureus clumping factor A, founder …; assay: fibrinogen binding inhibition assay (ClfA binding to fibrinogen)
[15] = target: T3, S. aureus clumping factor A, founder …; assay: as above
[16] = target: T2, S. aureus clumping factor A, founder …; assay: Biacore
[17] = target: T3, S. aureus clumping factor A, founder …; assay: Biacore
[18] = target: T2, S. aureus clumping factor A, founder …; assay: Biacore, antibody captured, ClfA as sample
[19] = target: T3, S. aureus clumping factor A, founder …; assay: Biacore, antibody captured, ClfA as sample
ClfA [20] = target: T1, ClfA; assay: fibrinogen binding inhibition ('IC50 (ug/ml) fibrinogen assay'); blocked ligand fibrinogen; sample after 2 weeks of light exposure; ClfA genotype not stated; printed only in the right-hand table

Binder | IC50 (ClfA [2]) [µg/mL] | IC50 (ClfA [3]) [µg/mL] | IC50 [4] [µg/mL] | IC50 [5] [µg/mL] | Kd [18] [nM] | koff [18] [s⁻¹] | kon [18] [M⁻¹ s⁻¹] | Kd [19] [nM] | koff [19] [s⁻¹] | kon [19] [M⁻¹ s⁻¹] | further results
B1 | 19.9 | 9.95 |  |  |  |  |  |  |  |  | IC50 (ClfA [1]): 27.8 µg/mL
B2 |  |  | 2.91 | 1.72 | 0.0477 | 0.000182 | 3.82e+06 | 0.0209 | 6.21e-05 | 2.97e+06 | IC50 (read off the curve) [6]: ~30 µM; IC50 (read off the curve) [7]: ~10 µM; Kd [8]: 0.0448 nM; koff [8]: 9.53e-05 s⁻¹; kon [8]: 2.13e+06 M⁻¹ s⁻¹; Kd [9]: 1.15 pM; koff [9]: 6.46e-06 s⁻¹; kon [9]: 5.62e+06 M⁻¹ s⁻¹; IC50 [10]: ~20 µM; IC50 [11]: ~20 µM; IC50 [12]: 14.3 nM; IC50 [13]: 8.08 nM; IC50 [14]: 1.16 µg/mL; IC50 [15]: 1.63 µg/mL; fold tighter binding (KD) than SAR114-N3 [16]: ~10 fold; fold tighter binding (KD) than SAR114-N3 [17]: ~10 fold
B3 | 9.2 | 6.28 |  |  |  |  |  |  |  |  | IC50 (ClfA [20]): 12.7 µg/mL
B4 |  |  | 3.11 | 2.52 | 0.265 | 0.00104 | 3.92e+06 | 0.316 | 0.000756 | 2.39e+06 | 
